“And” between values parts separate entries of the source, which are not always exact repeats. Identical values can stand only once.
Molecular target: YFP^C-Rho5 or YFP^C-Rho5^G12V
Test: split reporter (BiFC, NanoBiT); BiFC of candidate VN fusions with YFP^C fusions of WT or mutant Rho5 (G12V, K16N) in living yeast cells; z-stack fluorescence microscopy at 22-25°; for Atg21-VN signals quantified above a threshold set from a strain with untagged Rho5

Which percent of cells with YFP signal above threshold does the source give for “Atg21-VN (Atg21 tagged with VN, the N-terminal fragment of Venus) (from UniProt Q02887 1-496) (natural protein)” here?
Its percent of cells with YFP signal above threshold is 40 % of cells and 62 % of cells.
